These results are taken from US20190365920A1 (INSERM INSTITUT NATIONAL DE LA SANT ET DE LA RECHERCHE …, published 2019).

The target in the assay is T1, SLITRK6 (SLIT and NTRK-like family, member 6) (human, UniProt Q9H5Y7 27-841).
T1 construct: whole, on cells; Endogenous SLITRK6 at the membrane of A375 BRAF-mutant melanoma cells after treatment with PLX4032, alone or with AZD6244; also called DFNMYP
T1 sequence (looked up): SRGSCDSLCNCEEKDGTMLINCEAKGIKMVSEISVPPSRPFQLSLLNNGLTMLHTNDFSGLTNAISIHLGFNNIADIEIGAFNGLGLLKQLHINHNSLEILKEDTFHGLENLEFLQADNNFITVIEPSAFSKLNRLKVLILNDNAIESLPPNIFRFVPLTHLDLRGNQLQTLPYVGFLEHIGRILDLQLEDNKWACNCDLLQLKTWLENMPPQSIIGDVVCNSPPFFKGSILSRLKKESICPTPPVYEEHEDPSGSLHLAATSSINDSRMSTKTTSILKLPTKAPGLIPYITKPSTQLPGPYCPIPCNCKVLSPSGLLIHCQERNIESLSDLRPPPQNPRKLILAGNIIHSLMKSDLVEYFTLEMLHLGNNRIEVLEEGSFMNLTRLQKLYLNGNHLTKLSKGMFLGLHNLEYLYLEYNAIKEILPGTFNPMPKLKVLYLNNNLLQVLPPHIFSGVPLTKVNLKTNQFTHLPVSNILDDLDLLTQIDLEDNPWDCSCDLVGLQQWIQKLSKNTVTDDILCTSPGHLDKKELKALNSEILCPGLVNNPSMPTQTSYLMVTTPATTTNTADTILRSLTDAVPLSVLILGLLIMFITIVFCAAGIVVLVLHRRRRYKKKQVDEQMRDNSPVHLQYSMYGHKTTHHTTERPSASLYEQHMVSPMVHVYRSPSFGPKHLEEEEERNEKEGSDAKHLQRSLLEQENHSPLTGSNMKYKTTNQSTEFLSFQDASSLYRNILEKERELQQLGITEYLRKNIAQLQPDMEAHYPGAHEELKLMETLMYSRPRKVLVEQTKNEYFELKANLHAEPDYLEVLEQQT
As to the kind of experiment: immunofluorescence staining of A375 cells (si-Ctl or si-SLITRK6) treated with PLX4032 alone or with AZD6244.

B1: Hal5-10acl2 antibody directed against SLITRK6 (antibody, V domains shown)
VH: QVQLVESGGGVVQPGRSLRLSCAASGFTFSSYGMHWVRQAPGKGLEWVAVIWYDGSNQYYADSVKGRFTISRDNSKNTLFLQMHSLRAEDTAVYYCARGLTSGRYGMDVWGQGTTVTVSS
VL: DIVMTQSPLSLPVTPGEPASISCRSSQSLLLSHGFNYLDWYLQKPGQSPQLLIYLGSSRASGVPDRFSGSGSGTDFTLKISRVEAEDVGLYYCMQPLQIPWTFGQGTKVEIKR
notes: It is produced by a CHO cell deposited as ATCC PTA-13102; also called HA15-10acl2; the antibody against SLITRK6
Regarding B1, the binding result is reported as “binds”.
